Experimental data reported in IntAct's records for PubMed 23622245.

B1: 26S proteasome non-ATPase regulatory subunit 5 (Drosophila melanogaster (Fruit fly)), Q9VYG1 (parent)
chain: MEMEDNWWVTKLKALESKPQRLDALTAMNSAIAKEAALPRQIIERLLTTDQLYDCANPAADSHVPKDQAVDVTLELLCHCLDQLAMDTADEQLSSLLRRGLTHSNPALRAQVLASLFKKLLRQLTVGQVLTLPNNELIFLILDELKQPDTQSTSLAINILSIVLPQRISNADVQAKLVQLLKQNEIVRCRAYELAVVLAKKSATLLSDVTFILDAALSELDNDDVLLQASVMELLVPLAEQNHGLSYMERRRVLDIISYRVQRVEEHPLDALLVPSIMKFFGKISVYQPLKIIGGYPHMLACLFMQLQSEDESILPTAMDTLANLATTPQGKILLNMHFSGAMEKSFKKYGSHTKKLSAHIKKRLLNSLDVIYDFKTPPATEIINIGKNWYECFAGGAHANIIMDLINTPFPDLQMAALSFLKTICKYNWGIVALKNTGGAVEFLLSRQKDLHRDIKYMKWQIMEILSASAEFSPTETIRFTAYVNEGPYHVQADLDVATEPQGNA
partner: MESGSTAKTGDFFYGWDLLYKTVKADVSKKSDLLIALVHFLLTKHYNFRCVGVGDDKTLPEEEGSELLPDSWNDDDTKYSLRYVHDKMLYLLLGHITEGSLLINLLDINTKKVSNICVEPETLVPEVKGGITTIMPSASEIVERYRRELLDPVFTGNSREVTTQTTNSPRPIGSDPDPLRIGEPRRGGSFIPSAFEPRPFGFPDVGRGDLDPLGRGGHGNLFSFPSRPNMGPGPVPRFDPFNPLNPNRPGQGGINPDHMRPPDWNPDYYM
B2: 26S proteasome non-ATPase regulatory subunit 9 (Drosophila melanogaster (Fruit fly)), Q9VFS8 (parent)
chain: MAAGTTTKERLERLINAKKQLEAQINRNGQILAANDNVGMSGPLVDAEGFPRNDIDVYQVRLARQTIICLQNDHKELMNQIQTLLNQYHSEIATTDPELVNRASALDLDSDRSPGGANITDLAPARAIVVVNLVSPDSPAERAGLCAGDAILRFGSINSGNFKGDLAQIGELVRNMQSQNVQLKVKRGEQQLDLILVPKTWSGRGLLGCNIVLPPEAMDH
partner: B1 partner
B3: Proteasome inhibitor PI31 subunit (Drosophila melanogaster (Fruit fly)), Q9V637 (parent)
chain: B1 partner
partner: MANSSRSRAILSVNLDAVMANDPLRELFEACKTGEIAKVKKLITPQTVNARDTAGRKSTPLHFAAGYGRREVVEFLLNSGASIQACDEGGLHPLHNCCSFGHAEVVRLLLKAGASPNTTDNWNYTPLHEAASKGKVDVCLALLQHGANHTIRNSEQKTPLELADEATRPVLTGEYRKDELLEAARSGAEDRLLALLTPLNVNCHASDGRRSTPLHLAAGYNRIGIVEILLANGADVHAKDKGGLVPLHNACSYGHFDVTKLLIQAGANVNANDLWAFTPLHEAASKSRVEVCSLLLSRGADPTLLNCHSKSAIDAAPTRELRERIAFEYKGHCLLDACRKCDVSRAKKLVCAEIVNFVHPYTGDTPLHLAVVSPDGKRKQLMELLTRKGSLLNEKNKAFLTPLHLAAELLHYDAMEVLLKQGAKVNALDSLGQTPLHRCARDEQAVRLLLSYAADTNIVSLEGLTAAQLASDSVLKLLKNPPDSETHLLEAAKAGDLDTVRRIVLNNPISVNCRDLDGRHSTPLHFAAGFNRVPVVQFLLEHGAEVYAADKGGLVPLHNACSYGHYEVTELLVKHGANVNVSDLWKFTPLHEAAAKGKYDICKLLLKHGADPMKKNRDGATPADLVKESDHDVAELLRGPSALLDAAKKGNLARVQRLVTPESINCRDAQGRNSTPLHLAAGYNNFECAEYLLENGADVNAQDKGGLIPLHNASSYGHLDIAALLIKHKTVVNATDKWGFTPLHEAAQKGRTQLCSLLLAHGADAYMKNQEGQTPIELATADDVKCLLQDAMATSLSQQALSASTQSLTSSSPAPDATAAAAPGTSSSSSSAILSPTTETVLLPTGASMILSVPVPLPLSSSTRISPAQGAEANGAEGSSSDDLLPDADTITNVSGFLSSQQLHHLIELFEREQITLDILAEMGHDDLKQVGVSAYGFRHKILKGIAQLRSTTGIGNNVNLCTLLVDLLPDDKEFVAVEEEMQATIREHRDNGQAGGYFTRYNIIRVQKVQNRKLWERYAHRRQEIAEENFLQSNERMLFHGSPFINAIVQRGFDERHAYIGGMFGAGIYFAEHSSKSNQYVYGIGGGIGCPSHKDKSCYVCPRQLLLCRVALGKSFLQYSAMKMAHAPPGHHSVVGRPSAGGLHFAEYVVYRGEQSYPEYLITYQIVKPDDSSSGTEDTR
B4: Proteasome inhibitor PI31 subunit (Drosophila melanogaster (Fruit fly)), Q9V637 (parent)
chain: B1 partner
partner: B2 chain
B5: Proteasome inhibitor PI31 subunit (Drosophila melanogaster (Fruit fly)), Q9V637 (parent)
chain: B1 partner
partner: B1 chain

Variants of: B1
Details: with psmf1_drome PI31, Q9V637

Row | Variant | effect of a mutation on the interaction
1 | R263A | disrupting interaction strength
2 | E44A | disrupting interaction strength

Variants of: B2
Details: with psmf1_drome PI31, Q9V637

Row | Variant | effect of a mutation on the interaction
3 | E9A | disrupting interaction strength
4 | R187A | disrupting interaction strength

Variants of: B3
Details: with tnks_drome Tnks

Row | Variant | effect of a mutation on the interaction
5 | L210A | disrupting interaction strength
6 | F241A | disrupting interaction strength
7 | R49A;G54A | disrupting interaction strength

Variants of: B4
Details: with psmd9_drome psmd9, Q9VFS8

Row | Variant | effect of a mutation on the interaction
8 | F241A | disrupting interaction strength
9 | L210A | disrupting interaction strength

Variants of: B5
Details: with psmd5_drome psmd5, Q9VYG1

Row | Variant | effect of a mutation on the interaction
10 | F241A | disrupting interaction strength
11 | L210A | disrupting interaction strength
